Measured values published in patent publication US20130266566A1 (AbbVie / Abbott, published 2013).

T1: rat PAI-1 (rat, UniProt P20961 24-402)
T1 sequence: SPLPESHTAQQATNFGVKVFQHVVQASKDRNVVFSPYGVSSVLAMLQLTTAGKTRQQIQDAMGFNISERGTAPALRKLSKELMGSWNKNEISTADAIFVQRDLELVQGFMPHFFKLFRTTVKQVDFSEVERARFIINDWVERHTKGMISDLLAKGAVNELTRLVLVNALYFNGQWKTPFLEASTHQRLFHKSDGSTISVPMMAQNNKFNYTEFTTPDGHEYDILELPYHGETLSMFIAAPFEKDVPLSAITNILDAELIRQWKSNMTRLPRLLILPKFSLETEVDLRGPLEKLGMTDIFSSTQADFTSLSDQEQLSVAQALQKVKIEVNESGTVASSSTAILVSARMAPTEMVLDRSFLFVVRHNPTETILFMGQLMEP

T2: mouse PAI-1 (mouse, UniProt P22777 24-401)
T2 sequence: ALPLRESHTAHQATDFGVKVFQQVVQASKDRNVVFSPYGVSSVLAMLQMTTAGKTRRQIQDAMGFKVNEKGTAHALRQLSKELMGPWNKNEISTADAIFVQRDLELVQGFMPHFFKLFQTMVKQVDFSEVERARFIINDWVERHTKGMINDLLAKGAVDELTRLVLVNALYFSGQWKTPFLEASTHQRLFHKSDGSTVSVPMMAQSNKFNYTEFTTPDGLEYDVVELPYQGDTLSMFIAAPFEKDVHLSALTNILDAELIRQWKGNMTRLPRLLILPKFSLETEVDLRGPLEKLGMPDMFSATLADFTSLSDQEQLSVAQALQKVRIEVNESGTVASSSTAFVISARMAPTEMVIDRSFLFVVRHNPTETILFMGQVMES


Tests used:
Test in all cases: cell-based or functional assay
rat PAI-1 = molecular target: T1, rat PAI-1
mouse PAI-1 = molecular target: T2, mouse PAI-1
cynomolgus PAI-1 = cynomolgus PAI-1 (cynomolgus, UniProt P05121 24-402 (human entry), limits assumed)
[1] = molecular target: active human PAI-1, recombinant, wild-type, non-glycosylated (E. coli) (human, UniProt P05121 24-402)

Binder	Chromogenic IC50 ratio rat/human (rat PAI-1) [fold]	Chromogenic IC50 ratio mouse/human (mouse PAI-1) [fold]	Chromogenic IC50 ratio cyno/human (cynomolgus PAI-1) [fold]	Chromogenic (IC50 in nM) human [1] [nM]	Chromogenic (IC50 in nM) cyno (cynomolgus PAI-1) [nM]	Chromogenic (IC50 in nM) rat (rat PAI-1) [nM]	Chromogenic (IC50 in nM) mouse (mouse PAI-1) [nM]
Antibody 02 IgG1, not germlined (antibody, V domains shown) VH: QVQLVQSGAEVKKPGSSVKVSCKASGGTFSSYAISWVRQAPGQGLEWMGGIIPTFGTANYAQKFQGRVTITADESTSTAYMELSSLRSEDTAVYYCAREKRQWLEGHFDYWGRGTLVTVSS VL: DIQMTQSPSTLSASVGDRVTITCRASEGIYHSLAWYQQKPGKAPKLLIYKASSLASGVPSRFSGSGSGTEFTLTISSLQPDDFATYYCQQYSDYPLTFGGGTKVEIK	317	104					
Antibody 01 IgG1, not germlined (antibody, V domains shown) VH: QVQLVQSGAEVKKPGSSVKVSCKASGGTFSSYAISWVRQAPGQGLEWMGGIIPIFGTANYAQKFQGRVTITADESTSTAYMELSSLRSEDTAVYYCAREKRQWLEGHFDYWGRGTLVTVSS VL: DIQMTQSPSTLSASVGDRVTITCRASEGIYRSLAWYQQKPGKAPKLLIYKASSLASGVPSRFSGSGSGTEFTLTISSLQPDDFATYYCQQYSNYPLTFGGGTKVEIK	66.2	20	0.4				
Antibody 11 scFv (scFv) QVQLQQSGAEVKKPGSSVKVSCKASGGTFSSYAISWMRQAPGQGLEWMGGIIPIFGTANYAQKFQGRVTITADESTSTAYMELSGLRSEDTAVYYCAREKRQWLEGHFDYWGRGTPVTVSSDIQMIQSPSFLSASTGDRVTITCQASEGIYHELAWYQQKPGKAPKLLIYRASSLASGAPSRFSGSGSGTDFTLTISSLQPDDFATYYCQQYSNYPLTFGGGTKLEIK	0.6	0.3	0.4	102	43.8	59.5	33.6
Antibody 12 scFv (scFv) QVQLQQSGAEVKKPGSSVKVSCKASGGTFSSYAISWVRQAPGQGLEWMGGIIPTFPTANYAQKFQGRVTITADESTSTAYMELSGLRSEDTAVYYCAREKRQWLEGHFDYWGRGTPVTVSSDIQMTQSPSFLSASIGDRVTITCRASEGIYHNLAWYQQKPGKAPKLLIYRASSLASGAPSRFSGSGSGTDFTLTISSLQPDDFATYYCQQYSNYPLTFGGGTKLEIK	34.4	12.2	0.3	2.3	0.6	78.2	27.8
Antibody 13 scFv (scFv) QVQLQQSGAEVKKPGSSVKVSCKASGGTFSSYAISWVRQAPGQGLEWMGGIIPTFGTANYAQKFQGRVTITADESTSTAYMELSDLRSEDTAVYYCAREKRQWLEGHFDYWGRGTPVTVSSDIQMTQSPSFLSASIGDRVTITCRASEGIYHSLAWYQQKPGKAPKLLIYRASSLASGAPSRFSGSGSGTDFTLTISSLQPDDFATYYCQQYSNYPLTFGGGTKLEIK	48.6	85.8	0.4	2.9	1.2	140	247
Antibody 17 scFv (scFv) QVQLQQSGAEVKKPGSSVKVSCKASGGTFSSYAISWVRQAPGQGLEWMGGIIPTFGTANYAQKFQGRVTITADESTSTAYMELSGLRSEDTAVYYCAREKRQWLEGHFDYWGRGTPVTVSSDIQMTQSPSFLSASIGDRVTITCRASEGIYHELAWYQQKPGKAPKLLIYRASSLASGAPSRFSGSGSGTDFTLTISSLQPDDFATYYCQQYSNYPLTFGGGTKLEIK	0.3	0.4	0.6	71.5	41.5	24.9	26.2
Antibody 21 scFv (scFv) PVQLQQSGAEVKKPGSSVKVSCKASGGTFSSYAISWVRQAPGQGLEWMGGIIPTFGTANYAQKFQGRVTITADESTSTAYMELSGLRSEDTAVYYCAREKRQWLEGHFDYWGRGTPVTVSSDIQMAQSPSFLSASIGDRVTITCRASEGIYHNLAWYQQKPGKAPKLLIYRASSLASGAPSRFSGSGSGTDFTLTISSLQPDDFATYYCQQYSNYPLTFGGGTKLEIK	12	7.9	0.4	4.1	1.6	49.2	32.2
Antibody 18 scFv (scFv) QVQLQQSGAEVKKPGSSVKVSCKASGGTFSSYAISWVRQAPGQGLEWMGGIIPTFGTANYAQKLQGRVTITADESTSTAYMELSGLRSEDTAVYYCAREKRQWLEGHFDYWGRGTPVTVSSDIQMTQSPSFLSASIGDRVTITCRASEGIYHALAWYQQKPGKAPKLLIYRASSLASGAPSRFSGSGSGTDFTLTISSLQPDDFATYYCQQYSNYPLTFGGGTKLEIK		255	0.4		0.5		319
Antibody 19 scFv (scFv) QVQLQQSGAEVKKPGSSVKVSCKASGGTFSSYAISWVRQAPGQGLEWMGGIIPIFDTANYAQKFQGRVTITADESTSTAYMELSGLRSEDTAVYYCARERRQWLEGHFDYWGRGTPVTVSSDIRMTQSPSFLSASIGDRVTITCRASEGIYHELAWYQQKPGKAPKLLIYRASSLASGAPSRFSGSGSGTEFTLTISSLQPDDFATYYCQQYSNYPLTFGGGTKLEIK	0.3	0.2	0.4	26	10.8	7.9	6.4
Antibody 22 scFv (scFv) QVQLQQSGAEVKKPGSSVKVSCKASGGTFSGYAISWVRQAPGQGLEWMGGIIPTFGTANYSQKFQGRVTITADESTSTAYMELSGLRSEDTAVYYCAREKRQWLEGHFDYWGRGTPVTVSSDIQMTQSLSFLSASIGDRVTITCRASEGIYHALAWYQQKPGKAPKLLIYRASSLASGAPSRFSGSGSGTDFTLTISSLQPDDFATYYCQQYSNYPLTFGGGTKLEIK	81.2	82.6	0.3	5	1.5	406	413
